# What was measured:
# [1] = tested on: KRS level in the monocyte/macrophage cell membrane (RAW 264.7 cells); assay: Western blotting of KRS in membrane and cytosol fractions after LN421 treatment; type: cell-based; conditions: 100 nM, 24 h, laminin 421 1 μg/ml
# Procedure: RAW 264.7 cells (2×10^6 cell) were incubated for 18 hr, treated with 1 μg/ml of each laminin subtype in serum-free DMEM, and then harvested at 0 h, 12 h, and 24 h. RAW 264.7 cell protein was separated into cytosol and membrane fractions by using the ProteoExtract Subcellular Proteome Extraction Kit (Calbiotech, cat #539790). The obtained protein was electrophoresed, transferred onto PVDF membrane (Milipore), and blocked with 3% skim milk. Thereafter, KRS polyclonal antibody (rabbit, Neomics, Co. Ltd. #NMS-01-0005) was added, followed by incubation for 1 h. After the unbound antibodies were washed out, anti-rabbit secondary antibodies (ThermoFisher Scientific, #31460) were added, followed by incubation. After incubation with the secondary antibodies, film sensitization was carried out using ECL reagent as a substrate in a dark room. The sensitized bands were compared with standard molecule markers to identify bands corresponding to KRS sizes. Na+/K+ ATPase (Abcam) and tubulin (Sigma) antibody were used for plasma membrane and cytosol marker identification, respectively. RAW 264.7 cells were treated with laminin 421 (1 μg/ml) and antibody (100 nM), incubated for 24 h, and harvested. […]
# [2] = tested on: pulmonary arterial hypertension (PAH) models; assay: Echocardiography in PAH model; type: in vivo, rat; conditions: MCT PAH rats, five animals per group
# Text: To induce PAH in seven-week-old SD rats (Orient Bio), 60 mpk of monocrotaline (MCT) was subcutaneously injected. […] All antibodies were i.v. injected twice a week, and sildenafil was orally administered every day.
# [3] = tested on: human KRS N-terminal peptide fragments (F1-F5); assay: SPR (Biacore T200) of immobilized N3 IgG against human KRS N-terminal peptide fragments; type: binding
# Procedure: First, N3 IgG antibody was immobilized to Biacore T200 (GE Healthcare) equipped with Series S sensor chip CM5 (GE Healthcare) by using an amine coupling kit (GE Healthcare). Then, the peptides shown in Table 4 below dissolved in PBS solution at corresponding concentrations were allowed to flow for 60 s. Then, PBS was allowed to flow for 5 min. Then, the binding ability was analyzed by Biacore T200 Evaluation software v2.0 (GE Healthcare).
# A549 cells = assay: MTT cytotoxicity assay; type: cell-based, human; conditions: 0, 50, 100, 500 nM, 24 h, serum-free media
# Procedure: MTT assay was performed on N3 IgG as a representative. A549 cells were seeded in 96-well plates (5,000 cell/well) and incubated. The cells were washed with serum-free media, and then treated with human mock IgG and N3 IgG of 0, 50, 100, 500 nM (in serum-free media). After 24-h incubation, MTT solution was added with 50 μg/well, followed by incubation for 4 h. After MTT solution was removed, the wells were treated with 100 ul of DMSO, and then the absorbance was measured at 570 nm.
# [4] = tested on: mouse KRS N-terminal peptide fragments (mF1-mF5); assay: SPR (Biacore T200) of immobilized N3 IgG against mouse KRS N-terminal peptide fragments; type: binding
# Procedure: In the same manner as the experimental method described in Example 4-1 above, N3 IgG antibody was immobilized on the chip by using an amine coupling kit (GE Healthcare). Then, the peptides shown in Table 4 above dissolved in PBS solution at corresponding concentrations were allowed to flow for 60 s, and PBS was allowed to flow for 5 min. Then, the binding ability was analyzed by Biacore T200 Evaluation software v2.0 (GE Healthcare).
# [5] = tested on: mouse breast cancer 4T-1 cells; assay: In-vivo cancer metastasis model (lung metastasis)
# Procedure: Since KRS can accelerate cell migration through 67LR associated with cancer metastasis, tumor (cancer) animal models were constructed using mouse breast cancer 4T-1 cells (Korean Cell Line Bank), which are well metastasizable to the lung. Orthotopic breast cancer animal models were constructed by injecting 4×10^4 4 T1 cells into the fat pad of six 7-week old BALB/cAnCr mice (Doo Yeol Biotech).
# The cancer was injected into the mammary fat pad, and after 10 days (Day 10), cancer tissues were resected from the fat pad. After one day (Day 11), N3 IgG (10 mg/kg) was administered twice a week for two weeks at intervals of 3 days (a total of four times, Days 11, 14, 18, and 21) via tail vein i.v. injection, and the same dose of control mock IgG (Thermo #31154) was also administered. One week after the completion of the entire antibody dosing schedule, that is, 28 days after cancer injection, the mice were sacrificed to take lung tissue. Upon autopsy of lung tissue, the lung was inflated by injection of a saline solution into the bronchus through a syringe, collected, and then stored in Bouin's solution (Sigma #HT10132) for 24 h. Thereafter, the metastasis nodules in each lobe of the lung were counted through a microscope.
# It has been known in the foregoing literature “Dae Gyu Kim et al., (2014)” that the YH16899 compound has an effect on cancer metastasis inhibition by suppressing the interaction between 67LR and KRS. Then, the cancer metastasis inhibitory effect was compared between YH16899 and N3 IgG, the antibody of the present invention. The construction of in-vivo tumor models and the observation of lung metastasis condition were carried out by the same method as in Example <3-3>. YH16899 was orally administered at 100 mpk every day. N3 IgG was intravenously injected at difference concentrations (1 mpk, 10 mpk) through mouse tails.
# [6] = N3 IgG immobilized, peptides in PBS
molecule,measurement,setting,value
"N3 IgG: IgG converted from N3 scFv; VH SEQ ID NO: 49, VL SEQ ID NO: 51; binds KRS N-terminal region (antibody, V domains shown) VH: EVQLLESGGGLVQPGGSLRLSCAASGFTFSSYDMSWVRQAPGKGLEWVSAISYDNGNTYYADSVKGRFTISRDNSKNTLYLQMNSLRAEDTAVYYSARMALDFDYWGQGTLVTVSS VL: QSVLTQPPSASGTPGQRVTISCTGSSSNIGSNYVTWYQQLPGTAPKLLIYDNSNRPSGVPDRFSGSKSGTSASLAISGLRSEDEADYYCASWDDSLSAYVFGGGTKLTVL",KRS level in the cell membrane,[1],effectively reduced
same,D-shaped left ventricle finding indicating pressure overload in the right ventricle,[2],not observed
same,binding to human KRS N-terminal epitopes F1-F5 (SPR),[3]; [6],"bound to epitopes F1, F2, F3, and F4, but not epitope F5"
same,rank of binding ability among human epitopes,[3]; [6],"the binding ability to epitope F4 was strongest, and the binding ability to F3, F2, and F1 was stronger in that order"
same,main binding site in the KRS N-terminal region,[3]; amino acid positions,positions 15 to 29
same,cytotoxicity (MTT assay),A549 cells,no cytotoxicity
same,"relative binding ability, epitope F3 vs F1 (mouse)",[4],stronger binding ability to epitope F3 than F1
same,binding to mouse KRS N-terminal epitopes F1-F5 (SPR),[4]; F2 and F4 data not shown,"bound to epitopes F1, F2, F3, and F4 of human (h), mouse (m), and rat (r) but not epitope F5"
same,lung metastasis nodules,"[5]; 10 mg/kg i.v. twice a week for two weeks, vs mock IgG control",significantly suppressed
same,laminin receptor expression in metastasis nodule sites of lung tissue,"[5]; 10 mg/kg i.v., control vs N3 IgG treatment group",significantly large amount of laminin receptors were expressed in the metastasis nodule sites in control compared with the group treated with the antibody
same,lung nodule count,[5]; 1 mpk and 10 mpk i.v.,significantly reduced in a dose-dependent manner
same,cancer metastasis inhibition compared with YH16899 (100 mpk),[5]; 1 mpk i.v.,significantly inhibited cancer metastasis compared with YH16899
